Test results as given in patent publication US20060193829A1.
Positions of bridges follow the written chain, without caps; N, C: chain ends. No end group written: not given here. *: point of attachment. NHNH2 = NN*

Experiments:
[1] = molecular target: REFACTO® (recombinant factor VIII-like polypeptide consisting of amino acids 1-743 and 1638 through 2332 of human factor VIII) (human) (UniProt P00451); assay: phage ELISA, with target against without target
[2] = molecular target: REFACTO® (recombinant factor VIII-like polypeptide consisting of amino acids 1-743 and 1638 through 2332 of human factor VIII) (human) (UniProt P00451); assay: phage ELISA, phage isolate on factor VIII target, anti-M13-HRP
[3] = molecular target: REFACTO® (recombinant factor VIII-like polypeptide consisting of amino acids 1-743 and 1638 through 2332 of human factor VIII) (human) (UniProt P00451); assay: affinity column, peptide on Toyopearl Formyl 650-M; target in fraction by activity assay
[4] = molecular target: REFACTO® (recombinant factor VIII-like polypeptide consisting of amino acids 1-743 and 1638 through 2332 of human factor VIII) (human) (UniProt P00451); assay: affinity column, peptide on Toyopearl Formyl 650-M; target in fraction by RP-HPLC
[5] = molecular target: native human factor VIII (nhfVIII) (human) (UniProt P00451); assay: batch binding to regenerated peptide beads; target in fraction by sandwich ELISA
Chain of native human factor VIII (nhfVIII) (human) (P00451 20-2351): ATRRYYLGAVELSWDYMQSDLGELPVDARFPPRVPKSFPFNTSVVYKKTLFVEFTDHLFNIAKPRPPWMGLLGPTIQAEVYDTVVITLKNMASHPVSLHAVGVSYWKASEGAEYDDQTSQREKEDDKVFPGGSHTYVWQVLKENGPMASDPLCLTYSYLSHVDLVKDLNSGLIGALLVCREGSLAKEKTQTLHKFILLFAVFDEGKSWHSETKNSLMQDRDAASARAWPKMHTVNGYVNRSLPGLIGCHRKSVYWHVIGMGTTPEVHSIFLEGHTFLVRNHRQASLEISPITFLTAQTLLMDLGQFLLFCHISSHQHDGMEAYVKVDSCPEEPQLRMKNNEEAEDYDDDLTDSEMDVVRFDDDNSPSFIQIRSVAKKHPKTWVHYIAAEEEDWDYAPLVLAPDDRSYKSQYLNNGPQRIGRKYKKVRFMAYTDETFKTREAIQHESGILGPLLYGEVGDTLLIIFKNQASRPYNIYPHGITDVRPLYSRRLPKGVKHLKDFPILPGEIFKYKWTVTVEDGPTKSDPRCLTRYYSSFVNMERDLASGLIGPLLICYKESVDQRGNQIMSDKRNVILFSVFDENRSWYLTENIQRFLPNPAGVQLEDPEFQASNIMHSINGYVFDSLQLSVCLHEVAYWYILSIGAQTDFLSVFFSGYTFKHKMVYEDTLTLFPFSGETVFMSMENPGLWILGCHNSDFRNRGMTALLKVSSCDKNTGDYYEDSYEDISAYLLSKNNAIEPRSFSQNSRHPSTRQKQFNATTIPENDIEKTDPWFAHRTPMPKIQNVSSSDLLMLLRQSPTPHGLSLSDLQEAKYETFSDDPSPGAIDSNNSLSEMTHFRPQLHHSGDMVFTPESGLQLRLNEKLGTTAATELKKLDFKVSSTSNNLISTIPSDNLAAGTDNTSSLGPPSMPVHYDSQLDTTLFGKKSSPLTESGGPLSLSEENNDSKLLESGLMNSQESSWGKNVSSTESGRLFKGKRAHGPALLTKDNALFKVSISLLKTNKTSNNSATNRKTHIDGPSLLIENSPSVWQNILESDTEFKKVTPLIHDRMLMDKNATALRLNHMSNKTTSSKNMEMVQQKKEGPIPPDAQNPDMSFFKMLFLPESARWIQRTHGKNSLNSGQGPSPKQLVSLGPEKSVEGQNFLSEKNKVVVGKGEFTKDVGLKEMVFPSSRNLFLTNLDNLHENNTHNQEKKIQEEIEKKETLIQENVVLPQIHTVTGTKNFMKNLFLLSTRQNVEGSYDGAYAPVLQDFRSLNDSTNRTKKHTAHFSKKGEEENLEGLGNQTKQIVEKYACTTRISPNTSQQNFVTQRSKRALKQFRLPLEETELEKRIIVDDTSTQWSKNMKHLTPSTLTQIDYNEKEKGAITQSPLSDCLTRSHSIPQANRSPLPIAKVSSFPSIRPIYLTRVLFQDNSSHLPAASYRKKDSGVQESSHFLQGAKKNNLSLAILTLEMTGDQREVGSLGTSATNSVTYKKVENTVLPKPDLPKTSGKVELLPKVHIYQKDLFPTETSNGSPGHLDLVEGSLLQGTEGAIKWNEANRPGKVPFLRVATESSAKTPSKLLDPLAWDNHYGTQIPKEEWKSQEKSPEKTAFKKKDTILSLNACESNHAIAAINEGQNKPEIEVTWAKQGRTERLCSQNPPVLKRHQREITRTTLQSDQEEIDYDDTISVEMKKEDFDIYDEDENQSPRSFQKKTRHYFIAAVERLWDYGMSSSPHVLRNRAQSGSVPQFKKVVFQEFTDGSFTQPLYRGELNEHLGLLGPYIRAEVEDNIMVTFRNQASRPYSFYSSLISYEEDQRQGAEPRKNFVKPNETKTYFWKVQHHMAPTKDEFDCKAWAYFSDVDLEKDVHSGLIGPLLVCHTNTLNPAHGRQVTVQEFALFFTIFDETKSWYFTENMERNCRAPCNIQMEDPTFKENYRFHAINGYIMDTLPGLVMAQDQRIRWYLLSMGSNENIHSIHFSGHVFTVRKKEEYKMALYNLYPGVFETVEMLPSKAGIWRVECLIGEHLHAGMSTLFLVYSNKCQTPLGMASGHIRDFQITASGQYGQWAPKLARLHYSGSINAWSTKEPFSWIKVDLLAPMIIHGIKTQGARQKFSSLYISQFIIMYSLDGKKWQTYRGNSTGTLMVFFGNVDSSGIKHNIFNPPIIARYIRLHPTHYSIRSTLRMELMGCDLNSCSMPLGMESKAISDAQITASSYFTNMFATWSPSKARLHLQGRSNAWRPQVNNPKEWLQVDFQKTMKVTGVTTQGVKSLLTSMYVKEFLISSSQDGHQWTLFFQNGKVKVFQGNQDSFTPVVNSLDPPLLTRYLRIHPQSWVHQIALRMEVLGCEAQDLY

[6] = molecular target: REFACTO® (recombinant factor VIII-like polypeptide consisting of amino acids 1-743 and 1638 through 2332 of human factor VIII) (human) (UniProt P00451); assay: batch binding to peptide beads; target in fraction by sandwich ELISA
[7] = molecular target: REFACTO® (recombinant factor VIII-like polypeptide consisting of amino acids 1-743 and 1638 through 2332 of human factor VIII) (human) (UniProt P00451); assay: batch binding to regenerated peptide beads; target in fraction by sandwich ELISA

Chain of REFACTO® (recombinant factor VIII-like polypeptide consisting of amino acids 1-743 and 1638 through 2332 of human factor VIII) (human) (P00451 20-762, chain 1 of 2): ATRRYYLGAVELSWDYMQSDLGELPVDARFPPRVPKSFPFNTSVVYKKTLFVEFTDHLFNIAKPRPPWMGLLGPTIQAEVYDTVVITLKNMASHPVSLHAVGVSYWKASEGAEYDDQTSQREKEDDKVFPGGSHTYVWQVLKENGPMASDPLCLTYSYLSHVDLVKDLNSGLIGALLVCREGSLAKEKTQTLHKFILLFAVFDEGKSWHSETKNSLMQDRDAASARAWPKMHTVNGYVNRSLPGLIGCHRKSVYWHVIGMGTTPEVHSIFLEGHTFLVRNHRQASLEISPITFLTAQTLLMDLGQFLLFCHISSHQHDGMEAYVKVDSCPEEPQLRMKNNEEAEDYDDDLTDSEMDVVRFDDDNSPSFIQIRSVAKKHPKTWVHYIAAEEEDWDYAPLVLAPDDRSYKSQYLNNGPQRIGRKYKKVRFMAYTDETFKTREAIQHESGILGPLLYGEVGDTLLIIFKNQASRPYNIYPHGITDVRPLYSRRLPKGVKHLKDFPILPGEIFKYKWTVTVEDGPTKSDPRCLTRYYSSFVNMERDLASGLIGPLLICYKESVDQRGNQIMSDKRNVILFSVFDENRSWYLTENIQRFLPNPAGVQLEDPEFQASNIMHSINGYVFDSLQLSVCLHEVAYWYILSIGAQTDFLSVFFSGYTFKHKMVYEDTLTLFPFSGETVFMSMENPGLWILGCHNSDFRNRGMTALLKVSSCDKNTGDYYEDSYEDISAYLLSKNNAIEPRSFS
Chain of REFACTO® (recombinant factor VIII-like polypeptide consisting of amino acids 1-743 and 1638 through 2332 of human factor VIII) (human) (P00451 1657-2351, chain 2 of 2): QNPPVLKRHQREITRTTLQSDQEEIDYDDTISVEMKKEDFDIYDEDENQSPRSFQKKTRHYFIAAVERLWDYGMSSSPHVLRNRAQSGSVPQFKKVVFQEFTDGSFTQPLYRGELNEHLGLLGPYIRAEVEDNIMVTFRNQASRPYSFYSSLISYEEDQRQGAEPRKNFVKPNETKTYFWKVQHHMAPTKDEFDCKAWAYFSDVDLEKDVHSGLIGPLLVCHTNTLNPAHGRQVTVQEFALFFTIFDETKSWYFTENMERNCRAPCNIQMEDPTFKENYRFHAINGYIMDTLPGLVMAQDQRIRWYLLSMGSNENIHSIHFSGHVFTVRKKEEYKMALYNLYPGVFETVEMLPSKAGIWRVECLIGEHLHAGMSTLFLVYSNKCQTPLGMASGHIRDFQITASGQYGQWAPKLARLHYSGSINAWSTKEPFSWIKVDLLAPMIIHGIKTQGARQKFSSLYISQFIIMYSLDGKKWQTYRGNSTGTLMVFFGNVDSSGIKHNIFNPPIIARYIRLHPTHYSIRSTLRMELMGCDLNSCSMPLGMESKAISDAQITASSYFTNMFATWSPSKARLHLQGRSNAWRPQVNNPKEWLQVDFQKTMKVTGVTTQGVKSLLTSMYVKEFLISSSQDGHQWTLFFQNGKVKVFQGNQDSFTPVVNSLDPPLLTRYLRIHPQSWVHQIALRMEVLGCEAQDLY

## RLCSWVSPCSA [TN7 isolate C5/G10]
[1]
  R (ratio of the ELISA score with target present to the ELISA score without target): 10
[2]
  ELISA signal: 0.5 OD630

## HPCGAWLRPCYN [TN8 isolate 08 (SEQ ID NO: 20)]
[1]
  R (ratio of the ELISA score with target present to the ELISA score without target): 20
[2]
  ELISA signal: 1 OD630

## FHCIGVWFCLH [TN7 isolate A09]
[2]
  ELISA signal: 0.1 OD630

## FCWVFQFRHCH [TN9/1 isolate … (SEQ ID NO: 77)]
[1]
  R (ratio of the ELISA score with target present to the ELISA score without target): 8

## HLCFAWFRPCDA [TN8 isolate 12 (SEQ ID NO: 17)]
[1]
  R (ratio of the ELISA score with target present to the ELISA score without target): 8
[2]
  ELISA signal: 0.4 OD630

## HSCGSWLFPCFA [TN7 isolate A06]
[1]
  R (ratio of the ELISA score with target present to the ELISA score without target): 10
[2]
  ELISA signal: 0.5 OD630

## FCWVHPFAHCL [TN9 isolate 02 (SEQ ID NO: 23)]
[2]
  ELISA signal: 0.2 OD630

## PHCNWLFPCSL [TN7 isolate D03]
[2]
  ELISA signal: 0.2 OD630

## HPCGSWLHPCAA [TN8 isolate 04 (SEQ ID NO: 12)]
[1]
  R (ratio of the ELISA score with target present to the ELISA score without target): 6
[2]
  ELISA signal: 0.3 OD630

## HPCGAWFNPCPR [TN8 isolate 01 (SEQ ID NO: 19)]
[2]
  ELISA signal: 0.2 OD630

## AEGTGDHPCGSWLRPCLHDPGPEGGGS-NHNH2 (disulfide 9-16 (inferred)) [Affinity ligand CS-453]
[3]
  % recovery, Elution A: 26.4%
  % recovery, Flow: 0%
[4]
  % recovery, Elution A: 43.2%
  % recovery, Elution B: 0%
  % recovery, Flow: 0%
  % recovery, pH2: 0%

## FGCSWLFPCPF [TN7 isolate A08]
[1]
  R (ratio of the ELISA score with target present to the ELISA score without target): 8
[2]
  ELISA signal: 0.4 OD630

## FCWVFNFSHCS [TN9 isolate 03 (SEQ ID NO: 26)]
[1]
  R (ratio of the ELISA score with target present to the ELISA score without target): 24
[2]
  ELISA signal: 1.1 OD630

## FCHVFHFSHCD [TN9 isolate 01 (SEQ ID NO: 24)]
[2]
  ELISA signal: 0.2 OD630

## AEGTGDFCWVFPFHHCFDPGPEGGGS-NHNH2 (disulfide 8-16 (inferred)) [Affinity ligand CS-460]
[3]
  % recovery, Elution A: 0%
  % recovery, Flow: 28.4%
[4]
  % recovery, Elution A: 28.8%
  % recovery, Elution B: 0%
  % recovery, Flow: 24.6%
  % recovery, pH2: 0%

## AEGTGDHLCGAWFRPCDADPGPEGGGS-NHNH2 (disulfide 9-16 (inferred)) [Affinity ligand CS-454]
[3]
  % recovery, Elution A: 42.4%
  % recovery, Flow: 2.2%
[5]
  % of Total Recovered in Eluate: 21%
  % of Total Recovered in Unbound: 67%
  % of Total Recovered in Wash: 12%
[4]
  % recovery, Elution A: 45.1%
  % recovery, Elution B: 0%
  % recovery, Flow: 2.5%
  % recovery, pH2: 0%
[6]
  % of Input Recovered in Eluate: 49%
  % of Input Recovered in Unbound: 24%
  % of Input Recovered in Wash: 12%

## HPCGSWLRPCLH [TN8 isolate 10 (SEQ ID NO: 10)]
[1]
  R (ratio of the ELISA score with target present to the ELISA score without target): 16
[2]
  ELISA signal: 1 OD630

## FCWVFPFNHCS [TN9 isolate 12 (SEQ ID NO: 28)]
[1]
  R (ratio of the ELISA score with target present to the ELISA score without target): 18
[2]
  ELISA signal: 1 OD630

## AEGTGDFCWVFAFDHCHDPGPEGGGS-NHNH2 (disulfide 8-16 (inferred)) [Affinity ligand CS-458]
[3]
  % recovery, Elution A: 55.6%
  % recovery, Flow: 1.4%
[7]
  % of Total Recovered in Eluate: 27%
  % of Total Recovered in Unbound: 59%
  % of Total Recovered in Wash: 14%
[5]
  % of Total Recovered in Eluate: 39%
  % of Total Recovered in Unbound: 48%
  % of Total Recovered in Wash: 13%
[4]
  % recovery, Elution A: 54.3%
  % recovery, Elution B: 0%
  % recovery, Flow: 1.8%
  % recovery, pH2: 0%
[6]
  % of Input Recovered in Eluate: 47%
  % of Input Recovered in Unbound: 20%
  % of Input Recovered in Wash: 10%

## FCWVFAFDHCH (not fully specified (bridges); cysteine pairing not given here) [TN9/1 isolate … (SEQ ID NO: 71)]
[1]
  R (ratio of the ELISA score with target present to the ELISA score without target): 24

## FCWVFPFNHCD [TN9 isolate 02 (SEQ ID NO: 27)]
[1]
  R (ratio of the ELISA score with target present to the ELISA score without target): 8
[2]
  ELISA signal: 0.4 OD630

## AEGTGDFGCSWLFPCPFDPGPEGGGS-NHNH2 (disulfide 9-15 (inferred)) [Affinity ligand CS-456]
[3]
  % recovery, Elution A: 43%
  % recovery, Flow: 4.8%
[5]
  % of Total Recovered in Eluate: 16%
  % of Total Recovered in Unbound: 70%
  % of Total Recovered in Wash: 14%
[4]
  % recovery, Elution A: 44.8%
  % recovery, Elution B: 0%
  % recovery, Flow: 3.4%
  % recovery, pH2: 0%
[6]
  % of Input Recovered in Eluate: 24%
  % of Input Recovered in Unbound: 47%
  % of Input Recovered in Wash: 20%

## HGCGAWFRPCHA [TN8 isolate 01 (SEQ ID NO: 18)]
[2]
  ELISA signal: 0.2 OD630

## HPCGSWFNPCAH [TN8 isolate 02 (SEQ ID NO: 13)]
[1]
  R (ratio of the ELISA score with target present to the ELISA score without target): 8
[2]
  ELISA signal: 0.3 OD630

## FCWVFPFQHCA [TN9 isolate 09 (SEQ ID NO: 29)]
[1]
  R (ratio of the ELISA score with target present to the ELISA score without target): 24
[2]
  ELISA signal: 1.1 OD630

## FCHVFPFLHCD [TN9 isolate 11 (SEQ ID NO: 32)]
[2]
  ELISA signal: 0.2 OD630

## HACGSWFRPCHA [TN8 isolate 07 (SEQ ID NO: 15)]
[1]
  R (ratio of the ELISA score with target present to the ELISA score without target): 6
[2]
  ELISA signal: 0.4 OD630

## AEGTGDFCWVFPFQHCADPGPEGGGS-NHNH2 (disulfide 8-16 (inferred)) [Affinity ligand CS-459]
[3]
  % recovery, Elution A: 31.2%
  % recovery, Flow: 6.4%
[4]
  % recovery, Elution A: 42.1%
  % recovery, Elution B: 0%
  % recovery, Flow: 1.6%
  % recovery, pH2: 0%

## FCHVFNFVHCS [TN9 isolate 01 (SEQ ID NO: 31)]
[1]
  R (ratio of the ELISA score with target present to the ELISA score without target): 8
[2]
  ELISA signal: 0.5 OD630

## RGCGSWLRPCLD [TN8 isolate 05 (SEQ ID NO: 11)]
[2]
  ELISA signal: 0.2 OD630

## HPCGSWFRPCFH [TN8 isolate 02 (SEQ ID NO: 14)]
[1]
  R (ratio of the ELISA score with target present to the ELISA score without target): 16
[2]
  ELISA signal: 0.7 OD630

## FCWVFPFHHCF [TN9 isolate 06 (SEQ ID NO: 30)]
[1]
  R (ratio of the ELISA score with target present to the ELISA score without target): 6
[2]
  ELISA signal: 0.3 OD630

## AEGTGDFHCIGVWFCLHDPGPEGGGS-NHNH2 (disulfide 9-15 (inferred)) [Affinity ligand CS-455]
[3]
  % recovery, Elution A: 1.3%
  % recovery, Flow: 61.6%
[4]
  % recovery, Elution A: 1.4%
  % recovery, Elution B: 0%
  % recovery, Flow: 65.8%
  % recovery, pH2: 0%

## RLCSWISPCSA [TN7 isolate D04]
[1]
  R (ratio of the ELISA score with target present to the ELISA score without target): 6
[2]
  ELISA signal: 0.3 OD630

## HLCGAWFRPCDA [TN8 isolate 02 (SEQ ID NO: 16)]
[1]
  R (ratio of the ELISA score with target present to the ELISA score without target): 6
[2]
  ELISA signal: 0.4 OD630

## HRCGSWLHPCLA [TN8 isolate 11/G10 (SEQ ID NO: 21)]
[1]
  R (ratio of the ELISA score with target present to the ELISA score without target): 6
[2]
  ELISA signal: 0.3 OD630

## FCWVFNWVHCD [TN9/1 isolate … (SEQ ID NO: 75)]
[1]
  R (ratio of the ELISA score with target present to the ELISA score without target): 14
